From patent US20230357364A1 (INTERNATIONAL AIDS VACCINE INITIATIVE, published 2023) come the findings set out here.

The target in assay [1] is T1, SARS-CoV-2 spike on pseudovirus or live virus (USA-WA1/2020, WT) (SARS-CoV-2, UniProt P0DTC2 14-1273). Kind of assay: cell-based or functional assay.
The target of assay [2] is T2, SARS-CoV-1 spike on pseudovirus (SARS-CoV-1, UniProt P59594 14-1255). In words: cell-based or functional assay.
For assay [3], the target named is SARS-CoV-2 RBD (RBD-2) (SARS-CoV-2). In words: ELISA. For orientation: ELISA stands for enzyme-linked immunosorbent assay.
Another assay concerns the target SARS-CoV-1 RBD (RBD-1) (SARS-CoV-1). In words: ELISA.
Assay [4] deals with T1, SARS-CoV-2 spike on pseudovirus or live …. In words: cell-based or functional assay. This is another data set of the same source.
For assay [5], the target named is T2, SARS-CoV-1 spike on pseudovirus. In words: cell-based or functional assay. The source holds these as a separate data set.
Assay [6] has as its target SARS-CoV-2 RBD (RBD-2) (SARS-CoV-2). Kind of assay: flow, HeLa-ACE2, mAb:RBD=2:1.
The target is the same in assay [7]. In words: SPR, Fc-captured IgG. On the technique in general: Surface plasmon resonance follows binding to a sensor surface in real time, without labels.
Assay [8] has the same target. In words: flow, HeLa-ACE2, mAb:RBD=4:1.

Substitutions are numbered along the chain they refer to. Read-outs that look alike come from different tables or passages of the source.

B1: L12.bP11C10 (antibody, V domains shown)
VH: QVQLVQSGAEVKKPGASVKVSCKASGYIFSGYYMHWVRQAPGQGLEWMGWISPDSGGTNYAQKFQGRVTMTRDTSITTGYMELSGLRSDDTAVYYCARGPRYSGTYFDYWGQGTLVTISS
VL: QSALTQPTSVSGSPGQSITISCTGTSSDVGGYNYVSWYQQHPGKAPKLIIYDVSNRPSGVSNRFSGSKSGNTASLTISGLQAEDEADYYCSSYTVSSTQVFGGGTKLTVL
notes: human IgG1
For the molecule B1, the “PSV neutralization IC50” value in assay [1] was 0.092 µg/mL; in assay [2], greater than 50 µg/mL; in assay [4], 0.494 µg/mL; in assay [5], greater than 50 µg/mL. Also, the concentration for a half-maximal effect (EC50) in the assay with SARS-CoV-2 RBD (RBD-2) [3] is 3.12 µg/mL; with SARS-CoV-1 RBD (RBD-1), greater than 50 µg/mL. The “Maximum Plateau of Neutralization” value in assay [4] came to 100%. In addition, the “% inhibition of RBD binding to hACE2” value was found to be 38.5% with SARS-CoV-2 RBD (RBD-2) [6] and 54.1% with SARS-CoV-2 RBD (RBD-2) [8]. Further, the “MFI (RBD binding to cell surface)” value is 6900 in the assay with SARS-CoV-2 RBD (RBD-2) [6] and 5170 with SARS-CoV-2 RBD (RBD-2) [8]. Moreover, binding with SARS-CoV-2 RBD (RBD-2) [7] was put at a Kd of 255 nM. In the assay with SARS-CoV-2 RBD (RBD-2) [7], this molecule gave a koff of 0.126 s⁻¹. The molecule further had an on-rate constant (kon) in the assay with SARS-CoV-2 RBD (RBD-2) [7] of 493000 M⁻¹ s⁻¹.

B2: L12.cP09C07 (antibody, V domains shown)
VH: B1 VH with F29Y, Y33F, T58A, K63T, I76T, G79A, Y80H, G85R, Y106H, I118V
VL: B1 VL with T8A, I18L, G43D, I49M, S54N, N71S, T94A, V95G, T108I
notes: human IgG1
Consider B2, for which the “PSV neutralization IC50” value in assay [1] was 0.085 µg/mL; in assay [2] it was greater than 50 µg/mL; in [5] it was greater than 50 µg/mL. For the same molecule, the concentration giving a half-maximal response (EC50) is 0.16 µg/mL with SARS-CoV-2 RBD (RBD-2) [3] and greater than 50 µg/mL in the assay with SARS-CoV-1 RBD (RBD-1). Moreover, the “Maximum Plateau of Neutralization” value in [4] is 95%. In addition, the “% inhibition of RBD binding to hACE2” value with SARS-CoV-2 RBD (RBD-2) [6] was 54.5%; with SARS-CoV-2 RBD (RBD-2) [8] it was 64.3%. The “MFI (RBD binding to cell surface)” value is 5130 in the assay with SARS-CoV-2 RBD (RBD-2) [6] and 4040 with SARS-CoV-2 RBD (RBD-2) [8]. This molecule also gave an equilibrium dissociation constant (Kd) with SARS-CoV-2 RBD (RBD-2) [7] of 87.9 nM. In the assay with SARS-CoV-2 RBD (RBD-2) [7], this molecule yielded a koff of 0.0691 s⁻¹. The same molecule came in with a kon with SARS-CoV-2 RBD (RBD-2) [7] of 786000 M⁻¹ s⁻¹.

B3: L12.bP12E05 (antibody, V domains shown)
VH: EVQLVQSGAEVKKPGASVKVTCKTSGYIFSGYYMHWVRQVPGQGLEWMGWISPDSGATNYAQKFQGRVTMTRDTSITTSYVELTWLKSDDTAVYYCARGPRYSGTYFDFWGQGTLVTVSS
VL: QAVVTQPASVSGSPGQSLTISCTGTSSDIGGFNYVSWYQQHPGKAPKLMIFDVSKRPSGVPNRFSGSKSGNTASLTISGLQAEDEGDYYCSSYTISSAQVFGGGTKLTVL
notes: human IgG1
As to B3, the “PSV neutralization IC50” value was 0.075 µg/mL in [1], greater than 50 µg/mL in assay [2], 0.255 µg/mL in [4] and greater than 50 µg/mL in assay [5]. In addition, the EC50 with SARS-CoV-2 RBD (RBD-2) [3] was 1.17 µg/mL; with SARS-CoV-1 RBD (RBD-1) it was greater than 50 µg/mL. For the same molecule, the “Maximum Plateau of Neutralization” value in assay [4] is 89%. Also, the affinity with SARS-CoV-2 RBD (RBD-2) [7], expressed as Kd, was 183 nM. This molecule also had a koff with SARS-CoV-2 RBD (RBD-2) [7] of 0.143 s⁻¹. In the assay with SARS-CoV-2 RBD (RBD-2) [7], the kon turned out to be 782000 M⁻¹ s⁻¹.

B4: L6.dP02F01 (antibody, V domains shown)
VH: EVQLVESGGGLVQPGRSLRLSCAASGFTFDDYAMHWVRQAPGKGLEWVSGISWNSGSIAFAGSVKGRFTISRDNAKNSLYLQMNSLRAEDTALYYCAKDQGYSYGNYFDYWGQGTLVTVSS
VL: QLVLTQPPSVSVAPGKTARITCGGNNIGSKSVYWYQQKPGQAPVLVVYDDSDRPSGIPERFSGSNSGNTATLTISRVEAGDEADYYCQVWDSSSDHPYVFGSGTKVTVL
notes: human IgG1
Consider B4, for which the EC50 with SARS-CoV-2 RBD (RBD-2) [3] worked out at 0.013 µg/mL; with SARS-CoV-1 RBD (RBD-1), 0.021 µg/mL. In addition, the “Maximum Plateau of Neutralization” value in assay [4] is 99%. In addition, the “PSV neutralization IC50” value in assay [4] was found to be 1.09 µg/mL; in assay [5], 5.56 µg/mL.

B5: L6.dP02A05 (antibody, V domains shown)
VH: EVQLVQSGAEVKKPGASVKVSCMASGYTFTSYYMHWVRQAPGQGLEWMGIISPSGGGTSYAQKFQGRVTLTRDTSTSTVYMELSSLRSEDTAVYYCARWYDSTGSIDYWGQGTLVTVSS
VL: DIVMTQSPSSLSASVGDRVTITCRASQGIRNDLGWYQQKPGKAPKRLIYAASSLQSGVPSRFSGSGSGTEFTLTISSLQPEDFATYYCLQHNSYPILTFGGGTKVEIK
notes: human IgG1
On to B5, for which the EC50 in the assay with SARS-CoV-2 RBD (RBD-2) [3] was 0.025 µg/mL; with SARS-CoV-1 RBD (RBD-1) it was greater than 50 µg/mL. Besides, in assay [4], the “Maximum Plateau of Neutralization” value is 100%. Besides, the results for the “PSV neutralization IC50” value in [4] and in [5] were 0.059 µg/mL and greater than 50 µg/mL, respectively.

B6: L12.bP11A06 (antibody, V domains shown)
VH: EVQLVESGGGLIQPGGSLRLSCAASGLTVSSNYMSWVRQAPGKGLEWVSVIYSGGSTFYADSVKGRFTISRDNSKNTLYLQMNSLRAEDTAVYYCARDLDVYGLDVWGQGTTVTVSS
VL: DIVMTQSPSFLSASVGDRVTITCRASQGISSYLAWYQQKPGKAPKLLIYAASTLQSGVPSRFSGSGSGTEFTLTISSLQPEDFATYYCQQLNSYPPKFTFGPGTKVEIK
Turning to B6, the entries for the “PSV neutralization IC50” value in assay [2], in assay [4] and in [5] were greater than 50 µg/mL, 0.019 µg/mL and greater than 50 µg/mL, respectively. Further, the “Maximum Plateau of Neutralization” value in assay [4] was found to be 100%.

In general, EC50 refers to the concentration needed to bring the measured effect to its halfway point. A low value points to an effect from little substance. In general, Kd refers to a measure of binding affinity in units of concentration. Read a low Kd as a tighter complex. What is called koff is a measure of how fast the partners let go of each other. The low end stands for slow dissociation, the high end for fast dissociation. Broadly, the kon is a measure of how fast the partners come together. A low value points to slow association.
